Assay results from patent US9902783B2, “Antibodies and pharmaceutical compositions containing same useful for inhibiting activity of metalloproteins” (Yeda Research and Development Co. Ltd., priority 2007, dated 2018).

T1: MMP-7 (matrilysin) (Homo sapiens, UniProt P09237)
T1 sequence (P09237 95-267): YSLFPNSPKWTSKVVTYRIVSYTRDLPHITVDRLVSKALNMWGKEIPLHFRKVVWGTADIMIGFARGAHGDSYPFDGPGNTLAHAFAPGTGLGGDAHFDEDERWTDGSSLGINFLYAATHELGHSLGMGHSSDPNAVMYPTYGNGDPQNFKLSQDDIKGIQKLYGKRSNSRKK

T2: Pro-MMP-2 (Homo sapiens, UniProt P08253)
T2 sequence (P08253 30-660 limits assumed): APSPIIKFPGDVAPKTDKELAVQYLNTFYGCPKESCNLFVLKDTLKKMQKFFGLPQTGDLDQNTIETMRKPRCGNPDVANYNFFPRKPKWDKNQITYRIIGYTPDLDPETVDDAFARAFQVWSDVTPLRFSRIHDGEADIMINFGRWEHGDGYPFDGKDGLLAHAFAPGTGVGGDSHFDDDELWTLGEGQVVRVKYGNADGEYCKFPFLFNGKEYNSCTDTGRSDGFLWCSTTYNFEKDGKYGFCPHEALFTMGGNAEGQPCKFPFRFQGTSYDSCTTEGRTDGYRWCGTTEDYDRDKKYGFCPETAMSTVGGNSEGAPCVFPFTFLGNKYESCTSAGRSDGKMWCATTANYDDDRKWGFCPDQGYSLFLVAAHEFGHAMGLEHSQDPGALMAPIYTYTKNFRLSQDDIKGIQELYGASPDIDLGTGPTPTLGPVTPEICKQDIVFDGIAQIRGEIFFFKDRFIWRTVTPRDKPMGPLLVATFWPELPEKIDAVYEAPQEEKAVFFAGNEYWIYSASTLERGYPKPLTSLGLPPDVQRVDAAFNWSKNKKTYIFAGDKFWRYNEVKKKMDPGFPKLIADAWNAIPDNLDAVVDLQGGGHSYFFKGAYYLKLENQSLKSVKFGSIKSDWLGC

B1: 13E11: monoclonal antibody, IgG2b, raised against the hapten CoTCPP (antibody, V domains shown)
VH: EGGGLVQPGGSRKLSCAASGFTFTSFGMHWVRQAPEKGLEWVAYISSGNEIIYYADTVKGRFTISRDNPKNTLFLQMTSLRSEDTAMYYCARNYYRYGFYVMDYWGQG
VL: EIVVTQSPAILSASPGEKVTMTCRASSSVSYMHWYQQKPGSSPKPWIYATSNELASGVPARFSGSGSGTSYSLTISRVEAEDAATYYCQQWISNPLTFGAG
modifications: 13E11 mAb heavy chain; 13E11 mAb light chain
notes: monoclonal antibody, IgG2b, raised against the hapten CoTCPP
B2: 6C6: monoclonal antibody, IgG2a, raised against the hapten Imisdp; MMP-2 and MMP-9 inhibitory; SEQ ID NO: 1 (protein)
chain: CMETTQTPLSLPVSLGDQASISCRSSQSIVHSNGNTFLEWYLQKPGQSPKLLIYKVSNCRFSGVPDRFSGSGSGTDFTLKISRVEAEDLGVYYCFQASHVPPTFGGG
modifications: 6c6 mAb light chain

Assays:
[1] = molecular target: MMP-2 (Mus musculus, UniProt P33434); assay: kinetic assay with fluorogenic peptide substrate, MMP-2; assay type: biochemical, human
[2] = molecular target: T1, MMP-7 (matrilysin); assay: inhibition assay with fluorogenic peptide substrate, MMP-7; assay type: biochemical; settings: mAb concentrations of up to 30 μM
Experimental: To explore the selectivity of 6C6, its reactivity was tested toward different matrix metalloproteinase subgroups including matrilysin (MMP7), membrane type MMP (MT1-MMP) and related disintegrin (ADAMs) tumor necrosis factor-α-converting enzyme (TACE). The core structures of these enzymes, are highly similar, varying mostly within the peripheral loops. Specifically the zinc-histidine scaffold is well conserved, showing a consensus helix followed by a loop that serves as a scaffold for the three histidine residues that coordinate the catalytic zinc ion (FIG. 13).
Similar inhibition assays were performed with appropriate flourogenic peptide substrates. […] Sequence variations, mostly within the peripheral loops dictate differences in the extent of exposure of the zinc-histidine motif, in the shape of the active site and its surface electrostatic may account for this selective inhibitory pattern.

[3] = molecular target: T2, Pro-MMP-2; assay type: binding
[4] = molecular target: MMP9 (Homo sapiens, UniProt P14780); assay: cleavage of mAb by MMP-9 on overnight incubation; settings: overnight incubations with 30 μM MMP9
Chain of MMP9 (P14780 94-707): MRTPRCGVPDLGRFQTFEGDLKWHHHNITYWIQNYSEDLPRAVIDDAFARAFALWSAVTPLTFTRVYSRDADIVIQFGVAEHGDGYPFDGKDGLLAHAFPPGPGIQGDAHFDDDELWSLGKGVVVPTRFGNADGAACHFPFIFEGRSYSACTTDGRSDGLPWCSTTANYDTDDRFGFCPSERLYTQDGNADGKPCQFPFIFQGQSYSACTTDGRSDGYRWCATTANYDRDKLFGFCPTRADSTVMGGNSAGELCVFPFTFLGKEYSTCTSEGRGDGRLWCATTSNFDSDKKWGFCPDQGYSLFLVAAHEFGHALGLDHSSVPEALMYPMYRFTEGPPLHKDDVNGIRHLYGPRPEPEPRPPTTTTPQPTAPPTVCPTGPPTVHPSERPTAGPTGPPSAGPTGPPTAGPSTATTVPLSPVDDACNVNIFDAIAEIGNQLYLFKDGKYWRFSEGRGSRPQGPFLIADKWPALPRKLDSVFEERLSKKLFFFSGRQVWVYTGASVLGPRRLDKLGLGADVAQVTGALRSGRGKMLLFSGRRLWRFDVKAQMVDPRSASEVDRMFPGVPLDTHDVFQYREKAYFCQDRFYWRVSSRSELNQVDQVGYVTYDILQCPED

Chain of MMP-2 (P33434 110-467): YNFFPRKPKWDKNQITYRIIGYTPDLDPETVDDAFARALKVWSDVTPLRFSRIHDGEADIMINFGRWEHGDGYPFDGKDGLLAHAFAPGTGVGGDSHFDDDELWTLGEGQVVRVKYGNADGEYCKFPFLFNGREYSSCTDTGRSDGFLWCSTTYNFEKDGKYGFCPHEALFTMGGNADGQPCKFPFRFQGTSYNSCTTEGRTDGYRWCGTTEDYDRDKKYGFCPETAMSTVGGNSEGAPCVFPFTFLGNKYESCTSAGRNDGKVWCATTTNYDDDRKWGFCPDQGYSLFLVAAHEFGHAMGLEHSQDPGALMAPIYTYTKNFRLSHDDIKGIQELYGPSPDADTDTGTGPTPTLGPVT

Molecule | mode of inhibition of MMP-2 [1] | inhibition of MMP-7 [2] | binding to Pro-MMP-2 [3] | cleavage of mAb by MMP-9 [4]
B1 | competitive inhibitor |  |  | 
B2 |  | neither MMP-7 nor TACE were inhibited to any measurable extent | did not bind | not cleaved
